Assay results taken from patent publication US20180010140A1 (WASHINGTON STATE UNIVERSITY, published 2018).

T1: BPM4 (At3 g03740), yeast two-hybrid construct (Arabidopsis thaliana, UniProt Q9SRV1 1-465, limits assumed)
T1 construct: Yeast two-hybrid fusion
T1 sequence (looked up): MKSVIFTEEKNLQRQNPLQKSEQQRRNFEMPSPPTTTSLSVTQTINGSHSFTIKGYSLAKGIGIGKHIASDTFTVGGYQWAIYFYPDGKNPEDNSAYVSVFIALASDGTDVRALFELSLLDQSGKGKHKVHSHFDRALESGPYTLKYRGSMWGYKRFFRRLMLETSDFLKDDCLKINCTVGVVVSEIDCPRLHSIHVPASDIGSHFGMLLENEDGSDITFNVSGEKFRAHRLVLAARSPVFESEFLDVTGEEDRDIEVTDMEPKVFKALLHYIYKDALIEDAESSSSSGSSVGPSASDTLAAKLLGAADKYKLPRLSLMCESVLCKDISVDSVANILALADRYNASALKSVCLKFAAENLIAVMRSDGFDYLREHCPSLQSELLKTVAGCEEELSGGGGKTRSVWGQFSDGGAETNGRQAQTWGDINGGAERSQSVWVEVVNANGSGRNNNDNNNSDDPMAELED

B1: WRI1 (At3 g54320), yeast two-hybrid construct (other, Arabidopsis thaliana, UniProt Q6X5Y6 1-430, looked up)
chain: MKKRLTTSTCSSSPSSSVSSSTTTSSPIQSEAPRPKRAKRAKKSSPSGDKSHNPTSPASTRRSSIYRGVTRHRWTGRFEAHLWDKSSWNSIQNKKGKQVYLGAYDSEEAAAHTYDLAALKYWGPDTILNFPAETYTKELEEMQRVTKEEYLASLRRQSSGFSRGVSKYRGVARHHHNGRWEARIGRVFGNKYLYLGTYNTQEEAAAAYDMAAIEYRGANAVTNFDISNYIDRLKKKGVFPFPVNQANHQEGILVEAKQEVETREAKEEPREEVKQQYVEEPPQEEEEKEEEKAEQQEAEIVGYSEEAAVVNCCIDSSTIMEMDRCGDNNELAWNFCMMDTGFSPFLTDQNLANENPIEYPELFNELAFEDNIDFMFDDGKHECLNLENLDCCVVGRESPPSSSSPLSCLSTDSASSTTTTTTSVSCNYLV
notes: Yeast two-hybrid fusion (bait pBTM116-D9 against BPM1 as prey; both bait and prey in the self-assembly test); also called WRINKLED1

How the values were obtained:
Assay in all cases: yeast two-hybrid
[1] = target: T1, BPM4 (At3 g03740), yeast two-hybrid …
Description: (§1) If not otherwise stated in this and subsequent FIGS. 30 μg of total protein extract were loaded as input, and experiments were done with 14-days old seedlings.
(§2) SDII selection medium supplemented with uracil and His was used as a transformation control, while for interaction studies, SDIV minimal medium was chosen without uracil and His supplements. Photos were taken from single spots 7 days after plating. […] Extraction and washing buffers contained at all times 1 mM PMSF (Sigma-Aldrich) and 10 μM MG132 (Sigma-Aldrich) to prevent proteolytic and proteasomal activities, respectively. […] In general, proteins were incubated at least 1.5 h at 4° C. under shaking conditions before being centrifuged.

yeast two-hybrid = target: the molecule itself
Description: as §1, §2

[2] = target: B1
Description: as §1, §2

| Binder | binding result [1] | binding result (yeast two-hybrid) | binding result [2] |
| --- | --- | --- | --- |
| B1 | binds | binds |  |
| BPM1 (At5 g19000), yeast two-hybrid construct (other, Arabidopsis thaliana, UniProt Q8L765 1-407, looked up, also called BTB/POZ-MATH protein 1) MGTTRVCSEVSSGSSKSLSQSLTVSTSTTETVNGFHEFKICGYSLAKGVGVGKYVASDTFMVGGYSWAIYFYPDGKSPEDNSSYVSLFIALASEGADVRALFELTLVDQSGNGKHKVHSHFGRALDSGPYTLKYRGSMWGYKRFFRRSSLESSDYLKENSLLVRCRVGVVKSVTEGPRYYNIPVPVSNLGQQLGNLLESGKGCDVVFQVDGETFNAHKLVLATRSPVFNAQLFGPLGDRNTKCITIEDMEAPIFKVLLHFIYWDELPDMQELIGTDSTLASTLVAQHLLAAADRYALERLKAICESKLCEGVAINTVATTLALAEQHHCLQLKAVCLKFVALPENLKAVMQTDGFDYLKESCPSLLTELLQYVARLSEHSVIVSGHRKEIFADGCDASGRRVKPRLH |  |  | binds |
| BPM3 (At2 g39760), yeast two-hybrid construct (other, Yeast two-hybrid fusion (pACT2 or pBTM116-D9)) MSTVGGIEQLIPDSVSTSFIETVNGSHQFTIQGYSLAKGMSPGKFIQSDIFSVGGYDWAIYFYPDGKNPEDQSSYISLFIALASDSNDIRALFELTLMDQSGKGKHKVHSHFDRALEGGPYTLKYKGSMWGYKRFFKRSALETSDYLKDDCLVINCTVGVVRARLEGPKQYGIVLPLSNMGQGLKDLLDSEVGCDIAFQVGDETYKAHKLILAARSPVFRAQFFGPIGNNNVDRIVIDDIEPSIFKAMLSFIYTDVLPNVHEITGSTSASSFTNMIQHLLAAADLYDLARLKILCEVLLCEKLDVDNVATTLALAEQHQFLQLKAFCLEFVASPANLGAVMKSEGFKHLKQSCPTLLSELLNTVAAADKSSTSGQSNKKRSASSVLGCDTTNVRQLRRRTRKEVRAVS |  |  | binds |
| BPM5 (At5 g21010), yeast two-hybrid construct (other, Arabidopsis thaliana, UniProt Q1EBV6 1-410, looked up, Yeast two-hybrid fusion) MSESVIQGSNPDRVLSPTSSKSVTQTVNGSHQFVIQGYSLAKGMGIGKHIASDNFSVGGYQWGIFFYPDGKNPEDNSSYVSVFIALASEGTEVRALFELALVDQSGKGKHKVHSHFERSLDGGPYTLKYRGSMWGYKRFFRRSILETSDYLKDDCLIINCTVGVVVSEILCPQLHSVHVPDSELGSHFGVLLDSMEGSDITFNIAGEKFLAHKLVLAARSPFFKSKFFSEFEANNTEVTINDLEPKVFKALLQFMYKDSLPEDVEPATAHTFERLKLSEIYETLIVKVLAAADKYDLIRLRLLCESHICKGVSVKSVAKILALADRYNAKELKGVCLKFTAENLAAVLETDAYQQMKDECVTLQSELLKAVAGHEEGSNSTGGAKSQSVWAQLSDGGGDTTSRHVRQRTT |  |  | binds |
